Changes are numbered by the printed parent chain. Names may count otherwise. Values belong to the binder of their own block, whether it stands above or below them.
Target: VLDLR(28–797)Δ(751–779)-C-tag (VLDLR ectodomain), P98155-2
Experiment: ELISA
Conditions: chain shown with the change, VLDLR-ed coated on microtiter plates, background binding to BSA subtracted; for Kd: parent: 79.6 nM; for response (Absorbance (450nm)): fitted binding curve read at Clu 1.0 µM, parent: est. 0.48, read off a plot

B1: wild-type human clusterin (WT Clu), P10909 L229S; M230S; F232S; Y235S (protein)
chain: MMKTLLLFVGLLLTWESGQVLGDQTVSDNELQEMSNQGSKYVNKEIQNAVNGVKQIKTLIEKTNEERKTLLSNLEEAKKKKEDALNETRESETKLKELPGVCNETMMALWEECKPCLKQTCMKFYARVCRSGSGLVGRQLEEFLNQSSPFYFWMNGDRIDSLLENDRQQTHMLDVMQDHFSRASSIIDELFQDRFFTREPQDTYHYLPFSLPHRRPHFFFPKSRIVRSSSPSSPSEPLNFHAMFQPFLEMIHEAQQAMDIHFHSPAFQHPPTEFIREGDDDRTVCREIRHNSTGCLRMKDQCDKCREILSVDCSTNNPSQAKLRRELDESLQVAERLTRKYNELLKSYQWKMLNTSSLLEQLNEQFNWVSRLANLTQGEDQYYLRVTTVASHTSDSDVPSGVTEVVVKLFDSDPITVTVPVEVSRKNPKFMETVAEKALQEYRKKHREE
Kd (Clu 0-2.0 µM): 989 nM

B4: wild-type human clusterin (WT Clu), P10909 A108E; L109S; E112K; P115Q; K304A; E307H (protein)
chain: B1 chain with A108E, L109S, E112K, P115Q, S229L, S230M, S232F, S235Y, K304A, E307H
Kd (Clu 0-1.0 µM): 137 nM

B7: wild-type human clusterin (WT Clu), P10909 S161R (protein)
chain 1: DQTVSDNELQEMSNQGSKYVNKEIQNAVNGVKQIKTLIEKTNEERKTLLSNLEEAKKKKEDALNETRESETKLKELPGVCNETMMALWEECKPCLKQTCMKFYARVCRSGSGLVGRQLEEFLNQSSPFYFWMNGDRIDRLLENDRQQTHMLDVMQDHFSRASSIIDELFQDRFFTREPQDTYHYLPFSLPHRRPHFFFPKSRIVR
chain 2: SLMPFSPYEPLNFHAMFQPFLEMIHEAQQAMDIHFHSPAFQHPPTEFIREGDDDRTVCREIRHNSTGCLRMKDQCDKCREILSVDCSTNNPSQAKLRRELDESLQVAERLTRKYNELLKSYQWKMLNTSSLLEQLNEQFNWVSRLANLTQGEDQYYLRVTTVASHTSDSDVPSGVTEVVVKLFDSDPITVTVPVEVSRKNPKFMETVAEKALQEYRKKHREE
Kd (Clu 0-1.0 µM): 376 nM

B8: wild-type human clusterin (WT Clu), P10909 K123Q; R127Q; R130Q; R138Q; R282Q; R286Q; R289Q (protein)
chain: MMKTLLLFVGLLLTWESGQVLGDQTVSDNELQEMSNQGSKYVNKEIQNAVNGVKQIKTLIEKTNEERKTLLSNLEEAKKKKEDALNETRESETKLKELPGVCNETMMALWEECKPCLKQTCMQFYAQVCQSGSGLVGQQLEEFLNQSSPFYFWMNGDRIDSLLENDRQQTHMLDVMQDHFSRASSIIDELFQDRFFTREPQDTYHYLPFSLPHRRPHFFFPKSRIVRSLMPFSPYEPLNFHAMFQPFLEMIHEAQQAMDIHFHSPAFQHPPTEFIREGDDDQTVCQEIQHNSTGCLRMKDQCDKCREILSVDCSTNNPSQAKLRRELDESLQVAERLTRKYNELLKSYQWKMLNTSSLLEQLNEQFNWVSRLANLTQGEDQYYLRVTTVASHTSDSDVPSGVTEVVVKLFDSDPITVTVPVEVSRKNPKFMETVAEKALQEYRKKHREE
Kd (Clu 0-2.0 µM): 1180 nM

The remaining lines, values ahead:

response (Absorbance (450nm)): 0.055
B2: wild-type human clusterin (WT Clu), P10909 Y204S; Y206S; L207S; F209S; L211S; F218S; F219S; F220S; L229S; M230S; F232S; Y235S (protein)
chain: B1 chain with Y204S, Y206S, L207S, F209S, L211S, F218S, F219S, F220S

Kd (Clu 0-1.0 µM): 109 nM
B3: wild-type human clusterin (WT Clu), P10909 V369K; A373T; T376K (protein)
chain: B1 chain with S229L, S230M, S232F, S235Y, V369K, A373T, T376K

Kd (Clu 0-2.0 µM): 1190 nM
B5: wild-type human clusterin (WT Clu), P10909 Y125F; G132E; L135K; R138E; Q139A; E142S (protein)
chain: B1 chain with Y125F, G132E, L135K, R138E, Q139A, E142S, S229L, S230M, S232F, S235Y

response (Absorbance (450nm)): 0.16
B6: wild-type human clusterin (WT Clu), P10909 Y204S; Y206S; L207S; F209S; L211S; F218S; F219S; F220S (protein)
chain: MMKTLLLFVGLLLTWESGQVLGDQTVSDNELQEMSNQGSKYVNKEIQNAVNGVKQIKTLIEKTNEERKTLLSNLEEAKKKKEDALNETRESETKLKELPGVCNETMMALWEECKPCLKQTCMKFYARVCRSGSGLVGRQLEEFLNQSSPFYFWMNGDRIDSLLENDRQQTHMLDVMQDHFSRASSIIDELFQDRFFTREPQDTSHSSPSSSPHRRPHSSSPKSRIVRSLMPFSPYEPLNFHAMFQPFLEMIHEAQQAMDIHFHSPAFQHPPTEFIREGDDDRTVCREIRHNSTGCLRMKDQCDKCREILSVDCSTNNPSQAKLRRELDESLQVAERLTRKYNELLKSYQWKMLNTSSLLEQLNEQFNWVSRLANLTQGEDQYYLRVTTVASHTSDSDVPSGVTEVVVKLFDSDPITVTVPVEVSRKNPKFMETVAEKALQEYRKKHREE

Source: PMC12527946
